How the values were obtained:
Test in all cases: ELISA, biotin-peptide on neutravidin plate, antibody 1 ug/ml
[1] = target: T1, peptide … (SEQ ID NO:51), N-terminally biotinylated (human)
T1 sequence (peptide, N-terminally biotinylated): EISQEVRGDVFPSY

[2] = target: T2, peptide … (SEQ ID NO:74), N-terminally biotinylated (human)
T2 sequence (peptide, N-terminally biotinylated): EISQEVAGDVFPSY

[3] = target: T3, peptide … (SEQ ID NO:75), N-terminally biotinylated (human)
T3 sequence (peptide, N-terminally biotinylated): EISQEVRADVFPSY

[4] = target: peptide … (SEQ ID NO:76), N-terminally biotinylated (human)
[5] = target: T4, peptide … (SEQ ID NO:77), N-terminally biotinylated (human)
T4 sequence (peptide, N-terminally biotinylated): EISQEVAADVFPSY

[6] = target: peptide … (SEQ ID NO:78), N-terminally biotinylated (human)
[7] = target: peptide … (SEQ ID NO:79), N-terminally biotinylated (human)
[8] = target: peptide … (SEQ ID NO:80), N-terminally biotinylated (human)
[9] = target: peptide … (SEQ ID NO:81), N-terminally biotinylated (human)
[10] = target: peptide … (SEQ ID NO:82), N-terminally biotinylated (human)
[11] = target: peptide … (SEQ ID NO:83), N-terminally biotinylated (human)
[12] = target: peptide … (SEQ ID NO:84), N-terminally biotinylated (human)
[13] = target: peptide … (SEQ ID NO:85), N-terminally biotinylated (human)
[14] = target: peptide … (SEQ ID NO:86), N-terminally biotinylated (human)

With “rabbit polyclonal antibody preparation raised against amino acids 56-190 of murine MFG-E8 (Santa Cruz sc-33546)” the absorbance 450 nm minus 540 nm [1] was 0.28 absorbance, the absorbance 450 nm minus 540 nm [2] was 0.24 absorbance and the absorbance 450 nm minus 540 nm [3] was 0.22 absorbance. The absorbance 450 nm minus 540 nm [4] was 0.24 absorbance, the absorbance 450 nm minus 540 nm [5] was 0.24 absorbance and the absorbance 450 nm minus 540 nm [6] was 0.28 absorbance. For the same substance, the absorbance 450 nm minus 540 nm [7] was 0.28 absorbance, the absorbance 450 nm minus 540 nm [8] was 0.31 absorbance and the absorbance 450 nm minus 540 nm [9] was 0.27 absorbance. The absorbance 450 nm minus 540 nm [10] was 0.24 absorbance, the absorbance 450 nm minus 540 nm [11] was 0.24 absorbance and the absorbance 450 nm minus 540 nm [12] was 0.29 absorbance. For the same substance, the absorbance 450 nm minus 540 nm [13] was 0.41 absorbance and the absorbance 450 nm minus 540 nm [14] was 0.34 absorbance.

— WO2013139956A1 (dated 2013)
